Measured values as given in patent US11708565B2, “HPPD variants and methods of use” (BASF AGRICULTURAL SOLUTIONS SEED US LLC, priority 2017, dated 2023).

Assays:
Thorne soybean plants = experiment: Greenhouse herbicide spray application on T0 soybean plants; type: in vivo; conditions: single gene cassettes in Thorne soybean, T0 plants sprayed with Cmpd. 1
From the text: SG1, SG10, SG20, and SG22 were transformed as single gene cassettes into Thorne soybean plants and T0 plants were sprayed with Cmpd. 1 to measure herbicide tolerance. Each iteration of mutant identified in the bacterial screening assay performed better than the previous version (SG20>SG10>SG1).

Cmpd. 1 = experiment: HitMix bacterial competition experiment against Cmpd. 1; type: cell-based; conditions: plasmid DNA of SG1, SG10 and reference proteins mixed, transformed and screened against Cmpd. 1
From the text: Screening variant libraries: In order to select improved variants, libraries of varying complexity were constructed in the pRANGER backbone. The first significant library to be screened was a multi-site saturation library, in which amino acid positions 338, 339, 340, and 341 were randomized with NNK codons, which use 32 codons to encode all 20 amino acids, for a theoretical complexity of 1.6×10^5 unique protein variants. Approximately 500,000 variants were transformed and screened in a bacterial competition assay against 5 mM Cmpd. 1 (2-chloro-3-(methylsulfanyl)-N-(1-methyl-1H-tetrazol-5-yl)-4-(trifluoromethyl)benzamide), and surviving clones were sequenced. After 3 rounds of subculturing, a single sequence was found and designated SG1 (Table 1). This sequence was used as the base gene for a 2nd generation library saturating positions 268, 270, 340, and 345. Similarly, these libraries were screened and SG10 (Table 1) was obtained from sequencing the surviving cultures at high concentrations of Cmpd. 1. To confirm that the hits had improved tolerance relative to K610, a “HitMix” competition experiment was carried out. Briefly, the plasmid DNA encoding each variant to be competed were mixed together in an Eppendorf tube, and then the DNA mixture was transformed and screened against Cmpd. 1 as previously described.

E. coli = experiment: Brown Color Assay (cell-based colorimetric assay of HPPD activity and tolerance to HPPD inhibitors); conditions: in the presence of 1 mM Cmpd. 1; for brown color formation: read at 440 nm
Method: A specific, although non-limiting, type of assay that can be used to evaluate the HPPD sequences of the invention is a colorimetric assay. In this assay, a YT-broth-type culture medium with 1% agarose, 5 mM L-Tyrosine and 42 mM Succinate, which contains the selection agent for the vector pSE420 (Invitrogen, Karlsruhe, Germany) or a modified version of pSE420 (pSE420(RI)NX) is poured into deep well plates. E. coli culture in the exponential growth phase which contains the vector pSE420-HPPDx (HPPDx means any gene coding for a putative HPPD enzyme/protein) is applied to each well.
Confirmation of activity by Brown Color Assay: To confirm that the designated hits retain HPPD activity and are tolerant to HPPD inhibitors, a cell-based colorimetric assay was employed. Wild-type E. coli strains lack the HPPD pathway; therefore expressing an HPPD enzyme in the presence of the substrate hydroxyphenylpyruvate (HPP) leads to the accumulation of the product, homogentisate (HGA). HGA is, in turn, auto-oxidized to a brown pigment, pyomelanin, which can be read at 440 nm. When cells are grown in the presence of an herbicide, brown color formation is inhibited with no effect on cell growth. The pRANGER vector is a low-copy, broad host range vector that allows some expression in E. coli.

| Molecule | herbicide tolerance in planta (Thorne soybean plants) | outcome of HitMix competition among variants (Cmpd. 1) | brown color formation relative to HPPD(evo41) (E. coli) | brown color formation (E. coli) |
| --- | --- | --- | --- | --- |
| SG10: HPPD variant, SEQ ID NO:3; P268D, E335P, G336D, N337S, K339Y, A340R, I345M (protein, SG10 Mutant HPPD, P268D, E335P, G336D, N337S, K339Y, A340R, I345M) MADLYENPMGLMGFEFIEFASPTPGTLEPIFEIMGFTKVATHRSKNVHLYRQGEINLILNNEPNSIASYFAAEHGPSVCGMAFRVKDSQKAYNRALELGAQPIHIDTGPMELNLPAIKGIGGAPLYLIDRFGEGSSIYDIDFVYLEGVERNPVGAGLKVIDHLTHNVYRGRMVYWANFYEKLFNFREARYFDIKGEYTGLTSKAMSAPDGMIRIPLNEESSKGAGQIEEFLMQFNGEGIQHVAFLTDDLVKTWDALKKIGMRFMTAPDDTYYEMLEGRLPDHGEPVDQLQARGILLDGSSVEGDKRLLLQIFSETLMGPVFFEFIQRKGDDGFGPDSFYRLFESMERDQVRRGVLTAD | SG20>SG10>SG1 | emerged as the dominant sequence among all variants tested | improved relative to HPPD(evo41) | robust brown color formation |
| SG20: HPPD variant, SEQ ID NO:4; P268D, T270A, E335P, G336D, N337S, K339Y, A340R, S344Q, I345M (protein, SG20 mutant HPPD, P268D, T270A, E335P, G336D, N337S, K339Y, A340R, S344Q, I345M) MADLYENPMGLMGFEFIEFASPTPGTLEPIFEIMGFTKVATHRSKNVHLYRQGEINLILNNEPNSIASYFAAEHGPSVCGMAFRVKDSQKAYNRALELGAQPIHIDTGPMELNLPAIKGIGGAPLYLIDRFGEGSSIYDIDFVYLEGVERNPVGAGLKVIDHLTHNVYRGRMVYWANFYEKLFNFREARYFDIKGEYTGLTSKAMSAPDGMIRIPLNEESSKGAGQIEEFLMQFNGEGIQHVAFLTDDLVKTWDALKKIGMRFMTAPDDAYYEMLEGRLPDHGEPVDQLQARGILLDGSSVEGDKRLLLQIFSETLMGPVFFEFIQRKGDDGFGPDSFYRLFEQMERDQVRRGVLTAD | SG20>SG10>SG1 |  |  |  |
| SG1: HPPD variant, SEQ ID NO:2; E335P, G336D, N337S, K339Y, A340R relative to SEQ ID NO:1 (protein, SG1 variant HPPD) MADLYENPMGLMGFEFIEFASPTPGTLEPIFEIMGFTKVATHRSKNVHLYRQGEINLILNNEPNSIASYFAAEHGPSVCGMAFRVKDSQKAYNRALELGAQPIHIDTGPMELNLPAIKGIGGAPLYLIDRFGEGSSIYDIDFVYLEGVERNPVGAGLKVIDHLTHNVYRGRMVYWANFYEKLFNFREARYFDIKGEYTGLTSKAMSAPDGMIRIPLNEESSKGAGQIEEFLMQFNGEGIQHVAFLTDDLVKTWDALKKIGMRFMTAPPDTYYEMLEGRLPDHGEPVDQLQARGILLDGSSVEGDKRLLLQIFSETLMGPVFFEFIQRKGDDGFGPDSFYRLFESIERDQVRRGVLTAD | SG20>SG10>SG1 |  | improved relative to HPPD(evo41) | robust brown color formation |
| SG22: HPPD variant, SEQ ID NO:5; P268D, E335N, G336D, N337S, A340R, I345M (protein, SG22 mutant HPPD, P268D, E335N, G336D, N337S, A340R, I345M) MADLYENPMGLMGFEFIEFASPTPGTLEPIFEIMGFTKVATHRSKNVHLYRQGEINLILNNEPNSIASYFAAEHGPSVCGMAFRVKDSQKAYNRALELGAQPIHIDTGPMELNLPAIKGIGGAPLYLIDRFGEGSSIYDIDFVYLEGVERNPVGAGLKVIDHLTHNVYRGRMVYWANFYEKLFNFREARYFDIKGEYTGLTSKAMSAPDGMIRIPLNEESSKGAGQIEEFLMQFNGEGIQHVAFLTDDLVKTWDALKKIGMRFMTAPDDTYYEMLEGRLPDHGEPVDQLQARGILLDGSSVEGDKRLLLQIFSETLMGPVFFEFIQRKGDDGFGNDSFKRLFESMERDQVRRGVLTAD | performed similarly to SG1 |  |  |  |
